In patent publication US20210292423A1 (published 2021):
Substitutions are numbered along the chain they refer to.

B1: CODV-Fab 7G3x4E7 antibody-like binding protein (bispecific antibody)
light: DVVMTQTPVSLSVSLGGQVSISCRSSQSLEHNNGNTYLSWYLQKPGQSPQPLIYKVSNRFSGISDRFSGSGSGTDFTLKISRVEPDDLGVYYCGQGTQYPFTFGPGTKLELKGQPKAAPDFVMTQSPSSLTVTAGEKVTMSCKSSQSLLNSGNQKNYLTWYLQKPGQPPKLLIYWASTRESGVPDRFTGSGSGTDFTLTISSVQAEDLAVYYCQNDYSYPYTFGGGTKLEIKTKGPSRTVAAPSVFIFPPSDEQLKSGTASVVCLLNNFYPREAKVQWKVDNALQSGNSQESVTEQDSKDSTYSLSSTLTLSKADYEKHKVYACEVTHQGLSSPVTKSFNRGEC
heavy: EVQLQQSGPELVKPGASVKMSCKASGYTFTDYYMKWVKQSHGKSLEWIGDIIPSNGATFYNQKFKGKATLTVDRSSSTAYMHLNSLTSEDSAVYYCTRSHLLRASWFAYWGQGTLVTVSASEVQVVETGGSLVQPGKSLKLTCATSGFTFSNAWMHWVRQSPEKQLEWVAQIKDKSNNYATYYAESLKGRFTISRDDPKRSIYLQMNSLREEDTAIYYCRYVHYGIGYAMDAWGQGTSVTVSSRTASTKGPSVFPLAPSSKSTSGGTAALGCLVKDYFPEPVTVSWNSGALTSGVHTFPAVLQSSGLYSLSSVVTVPSSSLGTQTYICNVNHKPSNTKVDKKVEPKSCDKTHTHHHHHH
notes: also called 7G3 × 4E7
B2: CODV-Fab 7G3x18F5 antibody-like binding protein (bispecific antibody)
light: B1 light with V3L, E30V, N32T, P51L, F60L, Q98H, P105A
heavy: EVQLQQSGPELVKPGASVKMSCKASGYTFTDYYMKWVKQSHGKSLEWIGDIIPSNGATFYNQKFKGKATLTVDRSSSTAYMHLNSLTSEDSAVYYCTRSHLLRASWFAYWGQGTLVTVSASEVQVVETGGSLVQPGKSLKLTCATSGFTFTNAWMHWVRRSPEKQLEWVAQIKDKSNNYATYYAESVKGRFTISRDDSKSSIYLQMNSLKEEDTAIYYCRYVHYRFAYALDAWGRGTSVSVSSRTASTKGPSVFPLAPSSKSTSGGTAALGCLVKDYFPEPVTVSWNSGALTSGVHTFPAVLQSSGLYSLSSVVTVPSSSLGTQTYICNVNHKPSNTKVDKKVEPKSCDKTHTHHHHHH
B3: 18F5-H10 Fab (Fab, V domains shown)
VH: EVQVVETGGSLVQPGKSLKLTCATSGFTFTNAWMHWVRRSPEKQLEWVAQIKDKSNNYATYYAESVKGRFTISRDDSKSSIYLQMNSLKEEDTAIYYCRYVHYRFAYALDAWGRGTSVSVSS
VL: DVLMTQTPVSLSVSLGGQVSISCRSSQSLVHTNGNTYLSWYLQKPGQSPQLLIYKVSNRLSGISDRFSGSGSGTDFTLKISRVEPDDLGVYYCGQGTHYPFTFGAGTKLELKR
notes: also called BDX-18F5-H10
B4: 4E7-C9 Fab (Fab, V domains shown)
VH: EVQVVETGGSLVQPGKSLKLTCATSGFTFSNAWMHWVRQSPEKQLEWVAQIKDKSNNYATYYAESLKGRFTISRDDPKRSIYLQMNSLREEDTAIYYCRYVHYGIGYAMDAWGQGTSVTVSS
VL: B3 VL with L3V, V30E, T32N, L51P, L60F, H98Q, A105P
notes: also called BDX-4E7-C9
B5: 20G6-F3 Fab (Fab, V domains shown)
VH: EVQLVETGGSLVQPGKSLKLTCATSGFTFTKAWMHWVRQSPEKQLEWVAQIKDKSNSYATYYAESVKGRFTISRDDSKSTIYLQMNSLKEEDTAIYYCRGVYYALSPFDYWGQGVMVTVSS
VL: B3 VL with L3V, T32N, L51S, L60F, I63F, E84D, H98Q, A105S, L111I
notes: also called BDW-20G6-F3
B6: 4B4-D7 Fab (Fab, V domains shown)
VH: B5 VH with S10R, K16R, T30S, K31N, D53A, K54R, S57N, V101T, L105S, S106K
VL: DVVMTQTPVSLSVSLGGQVSISCRSSQSLVHDNGNTYLSWSLQRPGQSPQVLIYKVSNRFSGTSDRFTGSGSGTDFTLKISRVEPDDLGVYYCGQGTQYPFTFGSGTKLEIKR
notes: also called BDW-4B4-D7

What was measured:
[1] = molecular target: human CD123 (IL3RA) on cells (human, UniProt P26951 19-378); assay: cell-based or functional assay
Chain of human CD123 (IL3RA) on cells (P26951 19-378): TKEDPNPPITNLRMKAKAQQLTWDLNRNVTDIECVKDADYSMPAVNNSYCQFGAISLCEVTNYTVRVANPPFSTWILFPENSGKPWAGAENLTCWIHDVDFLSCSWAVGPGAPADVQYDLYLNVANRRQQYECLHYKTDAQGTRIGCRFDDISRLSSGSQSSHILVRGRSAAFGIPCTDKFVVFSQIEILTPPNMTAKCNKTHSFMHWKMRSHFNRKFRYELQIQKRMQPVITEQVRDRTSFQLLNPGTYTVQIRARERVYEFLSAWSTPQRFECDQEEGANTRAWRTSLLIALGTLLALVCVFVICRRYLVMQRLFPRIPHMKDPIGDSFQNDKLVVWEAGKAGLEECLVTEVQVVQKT

[2] = molecular target: T1, human CD3ε/δ-Fc fusion protein (soluble recombinant CD3ε/δ complex) (human, UniProt P04234 22-105); assay: SPR Biacore, CODV-Fab
T1 construct: also called huCD3ε/δ; huCD3; not shown: hinge, CH2, CH3 of human IgG with tag
T1 sequence (chain, as listed by the source mutant, chain 1 of 2): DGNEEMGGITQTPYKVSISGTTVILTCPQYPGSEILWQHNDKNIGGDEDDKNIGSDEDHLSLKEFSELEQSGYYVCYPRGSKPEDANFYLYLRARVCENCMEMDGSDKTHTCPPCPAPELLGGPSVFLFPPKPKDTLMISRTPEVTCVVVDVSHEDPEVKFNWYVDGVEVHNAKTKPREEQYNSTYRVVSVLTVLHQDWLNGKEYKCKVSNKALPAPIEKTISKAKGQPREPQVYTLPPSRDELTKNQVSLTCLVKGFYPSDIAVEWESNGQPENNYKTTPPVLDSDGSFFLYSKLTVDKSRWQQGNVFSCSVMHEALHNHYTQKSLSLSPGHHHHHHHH
T1 sequence (P04234 22-105, stated change not applied, chain 2 of 2): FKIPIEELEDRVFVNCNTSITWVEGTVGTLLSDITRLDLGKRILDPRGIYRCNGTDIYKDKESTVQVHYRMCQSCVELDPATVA
Procedure: (§1) Binding affinities of anti-CD3 binding Fabs or CODV-Fabs were measured by surface plasmon resonance (SPR) using a Biacore3000 instrument (GE Healthcare). Assay buffer was HBS-EP (BR-1001-88, GE Healthcare). Capture of CD3ε/δ-Fc fusion proteins was achieved using the human antibody capture kit (GE Healthcare). […] The CD3εδ-Fc fusions proteins were captured at 10 μl/min to approx. 70 RU to yield Rmax values of 30 RU. Binding kinetics with the anti-CD3 Fabs or CODV-Fabs was measured at 30 μl/min for 240 sec. and 600 sec. for association and dissociation phase, respectively. Twofold dilutions of Fabs from 3 to 400 nM in assay buffer were used. All Fab concentrations were run in duplicate together with duplicate buffer blanks for double referencing. Regeneration of the capture surface was performed with a 1 min injection of 3M MgCl2 solution at 30 μl/min. For data analysis the BIAevaluation software v.4.1 (GE Healthcare) was used. Data were fit globally using a 1:1 Langmuir model with mass transfer.

[3] = molecular target: T2, human CD3δ expressed alone on HEK293F cells (human, UniProt P04234 22-171); assay: flow cytometry, HEK293F transfected with huCD3δ
T2 construct: entry includes the signal peptide; also called huCD3δ
T2 sequence (P04234 22-171 limits assumed, stated change not applied): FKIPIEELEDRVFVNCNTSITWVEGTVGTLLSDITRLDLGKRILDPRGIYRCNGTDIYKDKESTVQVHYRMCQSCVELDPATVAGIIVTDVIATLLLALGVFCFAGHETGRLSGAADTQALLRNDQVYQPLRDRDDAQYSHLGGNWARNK
Procedure: (§2) To analyze binding of antibodies to human CD3ε and human CD3δ expressed on the surface of cells, HEK293F cells were transfected with both constructs either alone or in co-transfection and signals were measured by flow cytometry. For transfection procedure FuGENE HD Transfection Reagent (Promega, #E2311) was used according to manufacturer's protocol.
Cells were incubated on a shaker at 37° C. and 5% CO2. At day one to three after transfection cells were harvested and binding of antibodies was analyzed by flow cytometry.
(§3) Antibodies for staining were seeded at 1 μg in 50 μl per well Stain Buffer with FBS (BD Pharmingen) in 96-well U-bottom suspension culture plates (Greiner bio-one). Harvested transfected cells were resuspended in Stain Buffer with FBS and were added at 50 μl per well to the antibodies. Cells were incubated at 4° C. in the dark for 30 min and were washed twice. 0.5 μg secondary antibody Goat F(ab′)2 Anti-Human IgG-FITC (Beckman Coulter, #732598) or Goat F(ab′)2 Anti-Human kappa-PE (Southern Biotech, #206209), respectively, in combination with 0.5 μg 7-AAD per well was added in 100 μl Stain Buffer with FBS. Cells were incubated at 4° C. in the dark for 15 min and were washed twice. For measurement, cells were resuspended in 200 μl Stain Buffer with FBS. Cells were measured using the MACSQuant (Miltenyi Biotec) or LSRII (BD) flow cytometer, respectively. Further data analyses were performed using the FlowJo software (Tree Star, Inc.).

[4] = molecular target: T1, human CD3ε/δ-Fc fusion protein (soluble …); assay: SPR Biacore, Fab
Procedure: as §1

[5] = molecular target: T3, human CD3 (TCR complex) on primary human T cells or Jurkat cells (human, UniProt P07766 23-207); assay: flow cytometry, primary human T cells
T3 construct: on the cells it stands in the whole TCR/CD3 complex; also called Jurkat E6-1 (expressing human TCR)
Procedure: The binding capacity of the CD3-Fabs was determined by flow cytometry. Primary human T cells were used as target cells. Therefore, peripheral blood mononuclear cells (PBMCs) were isolated from 200 ml peripheral blood of healthy donors treated with EDTA by Ficoll density centrifugation. 15 ml Histopaque (Sigma-Aldrich) was preloaded on a 50 ml Leucosep-Tube (Greiner bio-one). Blood was diluted with autoMACS Rinsing Buffer+1% BSA (Miltenyi Biotec) and loaded on the membrane of a total of ten prepared tubes. Tubes were centrifuged without brake for 10 min at 1000 xg. PBMCs were collected and washed with autoMACS Rinsing Buffer+1% BSA three times. Finally, PBMCs were resuspended in autoMACS Running Buffer (Miltenyi Biotec) for isolation of T lymphocytes by autoMACSpro technology using the Pan T Cell isolation Kit (Miltenyi Biotec) according to manufacturer's instructions. Purity of separated T cells was analyzed by MACSQuant flow cytometry using the human 7-Color Immunophenotyping Kit (Miltenyi Biotec). Isolated T cells were resuspended in Stain Buffer with FBS (BD Pharmingen) and 1E5 cells in 100 μl per well were seeded in 96-well U-bottom suspension culture plates (Greiner bio-one). Fab antibodies were diluted 1:3 in serial in PBS (Invitrogen) and 5 μl each were added to the cells at a final maximum concentration of 30000 ng/ml. The assay was incubated for 45 min at 4° C. Cells were washed twice with Stain Buffer with FBS and 1 μg secondary antibody Goat F(ab′)2 Anti-Human kappa-FITC (Beckman Coulter, #732621) per well was added in 100 μl Stain Buffer with FBS per well. The assay was incubated for 20 min at 4° C. and washed twice afterwards. Cells were resuspended in 150 μl Stain Buffer with FBS per well and were measured using the MACSQuant (Miltenyi Biotec) or LSRII (BD) flow cytometer. Further data analyses were performed using the FlowJo software (Tree Star, Inc.). Read out was percentage of cells positive for antibody binding. Cells treated only with the secondary but no primary antibody were used to set the gates. EC50 Curves were calculated by XLfit (Algorithm 205), EC50 values were calculated as inflection point of the slope (data are shown in table 6).

[6] = molecular target: T1, human CD3ε/δ-Fc fusion protein (soluble …); assay: SPR Biacore, CD3εδ-Fc captured, Fab analyte
Procedure: as §1

[7] = molecular target: T1, human CD3ε/δ-Fc fusion protein (soluble …); assay: SPR, CD3-Fc captured, Fab 100 nM
Procedure: (§4) Binding was tested by SPR using a BIAcore3000 instrument run with HBS-EP buffer. Recombinant huCD3 proteins (ε/δ (PB01226), ε/γ (PB01225)) were captured at 10 μl/min via Fc-tag by anti-human Fc capture antibody MAB1302 (Millipore) immobilized on a CM5 sensor chip. Anti-CD3 Fabs were used as analytes at 100 nM with association and dissociation times of 240 sec and 300 sec, respectively at 30 μl/min. After each cycle the surfaces were regenerated by a 2 min pulse of 10 mM glycine buffer pH2.5.

[8] = molecular target: recombinant huCD3ε/γ protein with Fc-tag (PB01225) (human, UniProt P07766 23-126; P09693 23-116); assay: SPR, CD3-Fc captured, Fab 100 nM
Procedure: as §4

[9] = molecular target: T4, human CD3ε expressed alone on HEK293F cells (human, UniProt P07766 23-207); assay: flow cytometry, transfected HEK293F
T4 construct: also called huCD3ε
Procedure: as §2, §3

[10] = molecular target: T5, human CD3ε and CD3δ co-expressed on HEK293F cells (human, UniProt P07766 23-207; P04234 22-171); assay: flow cytometry, transfected HEK293F
T5 construct: also called huCD3ε/δ (transfected cells); huCD3e + huCD3d
Procedure: as §2, §3

[11] = molecular target: T1, human CD3ε/δ-Fc fusion protein (soluble …); assay: SPR Biacore, Fab; remark: listed apart in the source
Procedure: as §1

| Binder | Activity EC50 [ng/ml], cytotoxic assay on THP-1 with human T cells [1] [ng/mL] | Kd [2] [nM] | koff [2] [s⁻¹] | kon [2] [M⁻¹ s⁻¹] | binding result [3] | Kd [4] [nM] | koff [4] [s⁻¹] | kon [4] [M⁻¹ s⁻¹] | EC50 [5] [nM] | Kd [6] [nM] | koff [6] [s⁻¹] | kon [6] [M⁻¹ s⁻¹] | RU of Fab binding at 100 nM [7] [RU] | RU of Fab binding at 100 nM [8] [RU] | % antibody positive transfected cells [9] [%] | % antibody positive transfected cells [10] [%] | Kd [11] [nM] | koff [11] [s⁻¹] | kon [11] [M⁻¹ s⁻¹] |
| --- | --- | --- | --- | --- | --- | --- | --- | --- | --- | --- | --- | --- | --- | --- | --- | --- | --- | --- | --- |
| B1 | 12 | 16 | 0.0019 | 120000 | – | – | – | – | – | – | – | – | – | – | – | – | – | – | – |
| B2 | 61 | – | – | – | – | – | – | – | – | – | – | – | – | – | – | – | – | – | – |
| B3 | – | – | – | – | no binding (tested: <20% of binding of huCD3e + huCD3d) | 1 | 0.00018 | 200000 | 4.1 | 0.89 | 0.00018 | 200000 | 13 | 7 | 70.6 | 70.4 | – | – | – |
| B4 | – | – | – | – | no binding (tested: <20% of binding of huCD3e + huCD3d) | 17 | 0.0015 | 89000 | 6.2 | 17 | 0.0016 | 89000 | 8 | 6 | 69 | 66.4 | – | – | – |
| B5 | – | – | – | – | no binding (tested: <20% of binding of huCD3e + huCD3d) | 8 | 0.00027 | 35000 | 14 | 7.7 | 0.00027 | 35000 | 7 | 4 | 68.6 | 67.4 | – | – | – |
| B6 | – | – | – | – | no binding (tested: <20% of binding of huCD3e + huCD3d) | 27 | 0.0029 | 110000 | 15.3 | 27 | 0.0029 | 110000 | 11 | 3 | 71.5 | 69.5 | 8.79 | 0.00285 | 326000 |
